In the nanobody polyreactivity screen of Harvey et al. (2022):

Assay: yeast display, Sf9 membrane polyspecificity reagent, FACS + sequencing; frameworks hold sequencing errors
Method in brief: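 Genes from sorted yeast were amplified by colony PCR, read by MiSeq 2 × 250 sequencing and filtered on CDR length. These cells carried a synthetic nanobody library in Saccharomyces cerevisiae BJ5465 and were sorted by FACS into low and high (top ~1%) gates on anti-HA and streptavidin fluorescence. Polyreactivity is labelled according to the gate of origin.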

QVQLVGSGGGLVQAGGSLRLSCAASGSTIKYYAMGWYRQAPGKERELVARITSDGGSTFYADSVKGRFTISRDNAKNTAYVQMNSLKPEDPAVYYCNTAYAFRHWWFYPMDYWGQGTQVTVSA
polyreactivity (PSR sort gate): high polyreactivity

QVQLVESGGGLVQAGGSLRLSCAASGRTFRLYAMGWYRQAPGKERELVAAISGSGGSTYYADSVKGRFTISRDNAKNTVYLQMNSLKPEDTAVYYCATAVHTAILNYWGQGTQVTVSS
polyreactivity (PSR sort gate): low polyreactivity

QVQLVESGGGLVQAGGSHRLSCAASGSIFYDNAMGWYRQAPGKERELVAVITVSGDSTYYADSVKGRFTISRDNAKNTVYLQMNSLKPEDTAVYYCNTDAISGSHFWRYITFGYLDDYWGQGTQVTVSS
polyreactivity (PSR sort gate): low polyreactivity

QVQLVESGGGLVQAGGSLRLSCAASGYIFGIYAMGWYRQAPGKERELVARINWSGGRTYYADSVKGRFTISRDNAKNTVYLQMNSLKTEDTAVYYCAARSSYRKMDYWGQGTQVTVSS
polyreactivity (PSR sort gate): high polyreactivity

QVQLVESGGGLVQAGGSLRLSCAASGFIFRNYAMGWSRQAPGKERELVAAITRSGTSTYYADSVKGRFTISRDNAKNTVYLQMNSLKPEDTAVYYCNAGWGLRLSWLGNYWGQGTQVTVSS
polyreactivity (PSR sort gate): high polyreactivity

QVQLVESGGGLVQAGGSLRLSCAASGFIFSYYAMGWYRQAPGKERELVAAISSSGGTTYADSVKGRFTISRDNAKNTVYLQMNSLKPEDTAVYYCARVQYWFYKPMYYWGQGTQVNVSS
polyreactivity (PSR sort gate): high polyreactivity

QVQLVESGGGLVQAGGSLRLSCAASGFTFYYYAMGWYRQATGKERELVAAISSTGGSTYYADSVKGRFTISRDNAKNTVYLQMNSVKQEDSAVYYCNAAGYRYPGDYDYWGQGTQVTVSS
polyreactivity (PSR sort gate): high polyreactivity

QVQLVESGGGLVQAGGSLRLSCAASGSTFGSYAMGWYRQAPGKERELVAAITSSGGRTYYADSVKGRFTISRDNSKNTVYLQMNSLKPEDTAVYYCAARPRGGVFEYGYWGQGTQVTVSS
polyreactivity (PSR sort gate): high polyreactivity

QVQLVDSGGGLVQAGGSLRLSCSASGSILGAYAMGWYRQSPGKERELVASISWSGGSTYYADSVKGRFTISRDNAKNTVYLQMNSLKPEDTAGYYCAASGIRYWLPYDYWGQGTQVTVSS
polyreactivity (PSR sort gate): high polyreactivity

QVQLVESGGVLVQAGGSLRLSCAASGFINLRYAMGWYRQAPGKERELVAAITSGGNTYYADSVKGRFTISRDNAKNTVSLQRNSLKQEDTAVYYCAAERFVITYPISRYYYWGQGTQVTVSS
polyreactivity (PSR sort gate): low polyreactivity

QVQLVESGGGLVQAGGSLRLSCAASGLIFRYNTMGWYRQAPGKERELVAAITSSGVRTYYADSVKGRFTISRDNAKNTVYLQMNSLKPEDTAVYYCAAEGKSYPWPWYFDYWGQGTQVTVSS
polyreactivity (PSR sort gate): high polyreactivity

QVQLVESGGGLVQAGGSLRLSCAASGSTFLYYGMGWYRQSPGYERELVATITWRGGRTYYADSVKGRYTISRDNAKNTVYLQMNSLKPEDTAVYYCARVRLTTYGYYSWGQGTQVTVSS
polyreactivity (PSR sort gate): high polyreactivity

QVQLVESGGGLVQAGGSLRLSCAASGSIFPYNAMGWYRQAPGKEMELVATISSGGSTNYADSVKGRFTISRDNAKNTVYLQMNSLKPEDTAVYYCAADVIVFYYAPNYWGDIEYGYWGQGTQVTVSS
polyreactivity (PSR sort gate): low polyreactivity

QVQLVESGGGLVQAGGSLRLSCAASGRTFSKYAMGWYRQAPGKERELVAAITRSGSSTYYADSVKGRFTISRDNAKNTVYLQMNCLKPEDTAVYYCAADRYLRSSGSAPDYGYWGQGTQVTVSS
polyreactivity (PSR sort gate): low polyreactivity

QVQLVESGGGLVQAGGSLRLSCAASGFTFYGYVMGWYRQAPGKERELVASIRSRGSRTSYADSVKGRFTISRDNAKNTVYLQMNSLKPEDTAVYYCAASRGRLPYSSTSNGDYDYWGQGTQVTVSS
polyreactivity (PSR sort gate): high polyreactivity

QVQLVESGGGLVQAGGSLRLSCAASGSTFVDYDMGWYRQAPGKERELVAAITYSGARTYYADSVKGRFTISRDNAKNTVYLKMNSLKPEDTAVYYCNADQRSASDQLEFDYWGQGTQVTVSS
polyreactivity (PSR sort gate): low polyreactivity

QVQLVESGGGLVQEGGSLRLSCAASGSIFKEYAMGWSRQAPGKERELVAAISTSGDITYYSDSVKGRFTISRDNAKNTVYLQMNSLKPEDTGVYYCAANYSLLRQYNRLDYWGQGTQLTVSS
polyreactivity (PSR sort gate): low polyreactivity

HAQQQESGGGLVQAGGSLRRSCAASGSIFRFSGRGWYRLAPGKERELVASIGFGSITYYADRVKGRFTISRDNANNTVYLQMNSLKPEDTAVYYCAVQVQDESWLDYWGQGTQVTVSC
polyreactivity (PSR sort gate): low polyreactivity

QVQHVESGGGLVQAGGSLRLSCAASGIFFFYGMGWYRQAPGKQRQLLAVISTGDTTDYADSVKGRSTISRDNAKNTVYLQMNSLIPEDTAVYYCAATGRSRSYSWSKLNYWGQGTQVTVSS
polyreactivity (PSR sort gate): low polyreactivity

QVQLVESGGGLVQAGGSLRLSCAASGSTFGPNAMGWYRQAPGKERELVATISSGGSTYYADSVKGRFTISRDNAKNTVYLQMNSLKPEDTAVYYCAVRTIIRPVDLYDYWGQGTQVTVSS
polyreactivity (PSR sort gate): low polyreactivity

QVQLVESGGGLVQAGGSLRLSCAASGRTFAWYAMGWYRQAPGKERELVAAISWSSDTTYYADSVKGRFTISRDNAKNTVYLQMNSLKPEDTAVYYCAAVFQGYTRKYYYWGQGTQVTVSS
polyreactivity (PSR sort gate): high polyreactivity

QVQLVESGGGLVQAGGSLRLSSAASGSTFWFNAMGWYRQAPVKERELVAGISERGGRTYYADSVKGRFTISRDNAKNTVYLQMNRLKPEDPAVYYSNAGISPRRTTYYKYDYWGQGTQVNVSS
polyreactivity (PSR sort gate): high polyreactivity

QVQLVESGGGLVQAGGSLRLSCDASGSIYRLNAMGWYRQAPGKEMELVAAITWSDSSTYYADSVKGRFTISRDNAKYTVYLQMNSLKPEDTAVYYCAADPQSYKYDYWGQGTQVTVSS
polyreactivity (PSR sort gate): low polyreactivity

QVQLVESGGGLVQAGGSLRLSCDASGSIFGRNAMGWYRQAPGKERELVAAISWRGGRTYYADSVKGRFTISRDNAKNTVYLQMNSLKPEDTAVYYCAATSGRPYEYGYWGQGTQVTVSS
polyreactivity (PSR sort gate): high polyreactivity

QVQLVESGGGLVQAGGSLRLSCAASGRIFLGNVMGWYRQAPGKERELVAAISSGGSTNYADSVKGRFTISRDNAKNTVYLQMNSLIPEDTAVYYCAAYFVRDWKLYYYWGQGTQVTVSS
polyreactivity (PSR sort gate): low polyreactivity

QVQLVESGGGLVQAGGSLRLSCAASGNIISNNAMGWYRQAPGKERELVAAIDWSGGRTYYADSVKGRFTISRDNAKNNVYIQMNSLKPEDTAVYYCAAEIPFTYRGVFYEYYYWGQGTQVTLSS
polyreactivity (PSR sort gate): high polyreactivity

QVQLVESGGVLVQAGGSLRLSCAASGFTFSLYAMGWYRQAPGKERELVASISRSGGSTYYADSVKGRFTISRDNAKNTVYLQMNSLKPEDTAVYSCAARWRPYKYDSWGQGTQVTVSS
polyreactivity (PSR sort gate): high polyreactivity

QVQLVESRGGLVQAGGSLRLSCAASGRIFGYYAMGWYRQAPGKERELVATIRGGGSTNYADSVKGRFTISRDNAKNTVYLQMNSLKPEDTAVYYCAKPGAKWRGFDYWGQGTQVTVSS
polyreactivity (PSR sort gate): low polyreactivity

QVQLVESGGGLDQAGGSLRLSCAASGFIFIQNDMGWYRQAPGKEREFVASISKDGGRTYYADSVKGRFTISRDNAKNTVYLQMNSLKPEDTAVVYCNTYPRGNWGNFVEQDYDYWGHGTQVTVSS
polyreactivity (PSR sort gate): low polyreactivity

QVQLQESGGGLVQVGGSQRLSCAASGNIFFNYAMGWYRHAQGKEREFDASINHGTSINYEDSVKGRFTISRDNAKNTVYLQMNSLKPEDTAVYYCAADLSWTDNLFYWGQGTQVTVSS
polyreactivity (PSR sort gate): low polyreactivity

QVQLVESGGGLVQAGGSLRLSCAASGIIFRPYAMGWYRQAPGKERELVAAITGSGVSTYYADSVKGRFTISRDNAKNTVYLQMNSLKPEDTAVYYCAKRYNRGYHRYDYWGQGTHVTVSS
polyreactivity (PSR sort gate): low polyreactivity

QVQLVESGGGLVQAGGSLRLSCAASGSTFYANAMGWYRQAPGKERELVAAISSRGGSTSYADSVKGRFTISRDNAKNTVYLQMNSLKPEDTAVYYCNKVTRYYYRGFDYWGQGTQVTVSS
polyreactivity (PSR sort gate): high polyreactivity

QVQLVESGGGLVQAGGSLRLSCAASGGTFSGYTMGWYRQAPGKERELVAAINWSGGRTYYADSVKGRFTISRDNAKNTAYLQMNSLKPEDTAVYYSNKYGLYYREYDYWGQGTQVTVSS
polyreactivity (PSR sort gate): high polyreactivity

QVQLVESGGGLVQAGGSLRLSCAASGSTFRTYAMGWYRQAPGKERELVADITWRGGSTYYADSVKGRFTISRDNAKNTVYLQMNSLKPEDTAVYYCATDRGPEVVLYDYWGQGTQVTVSS
polyreactivity (PSR sort gate): low polyreactivity

QVQLVESGGGLVQAGASLRLSCAASGLTYSHYAMGWYRQAPGKERQLVAGISSRGGNTYYADSVKGRFTISRDNAKNTVYLQMNSLKPEDTAVYYCNAPKPKRAYDYWGQGTQVTVSS
polyreactivity (PSR sort gate): high polyreactivity

QVQLVESGGGLVQAGGSLRLSCAASGRIFRAYAMGWYRQAPGKERELVAVITGSGGSTYYADSVKGRFTISRDNAKNTVYLQMNSLKPEDTAVYYCAAPVHTASGRWVPGYYYWGQGTQVTVSS
polyreactivity (PSR sort gate): high polyreactivity

QVQLVESGGGLVQAGGSLRLSSAASARIFFKNTKGWYRPAPGKERELVAAITSSGSSTYYADSVKGRFTISRDNAKKTVYLQMNSLKPEDTAVYYCNALTWDHSRTGVDYWGQGTQVTVSS
polyreactivity (PSR sort gate): low polyreactivity

QVQLVESGGGLVQAGGSLRLSCAASGSTFRGYVMGWYRQAPGQERELVAVINSSGGRTYYADSVKGRFTISRDNAKNTVYLQMNSLKPEDTAVYYCAARVLQYSGYYYWGQGTQVTVSS
polyreactivity (PSR sort gate): high polyreactivity

QVQLVESGGGLVQAGGSLSISCAASGLSFSVNAMGWYRPAPGKEREFVAAISSSGGRTYYADSVKGRFTISRDHAKNTVYLQMNSLKPEYTAGYYCATAQGSRVDYWGQGTQVTLSS
polyreactivity (PSR sort gate): high polyreactivity

QVQLVESGGGLVQAGGRLRLSCAASGRTFAYYAMGWYRQAPGKERELVASITTRDGSTYYADSVKGRFTISRDNAKNTVYLQMNSLKPEDTAVYYCAAATEYSSGYEYDYWGQGTQVTVSS
polyreactivity (PSR sort gate): low polyreactivity

QVQLVESGGGLVQAGGSLRLSCAASGSIFATNTMGWYRQSPGKERELVATISSSDSTNYADSVKGRFTISRDNAKNTVYLEMNSLKPVDTAVYYCNKAYVDSTHGSYRWTYDYWGQGTQVTVSS
polyreactivity (PSR sort gate): low polyreactivity

QVQLVESGGGLVQAGGSLRLSCAASGRIFRGYTMGWYRTAPGKERELVAAISRSTGSTNYADSVKGRFTISRDNAKNTVYLQMNSLKPEDTAVYYCAAGPVDYGDWYYDVWFDYWGQGTQVTVSS
polyreactivity (PSR sort gate): high polyreactivity

QVQLEESGGGLVQAGGSLRLSCAASGIIFGRYAMGWYRQAPGKQRELVAAITSGGSTSYADSVKGRFTISRDNAKNTVYLQMNSLKPEDTAVYYCAVVFVWGWPGYYWGQGTQVTVSS
polyreactivity (PSR sort gate): high polyreactivity
